Common to all, as to experiment: pull-down; GST-ferric Ngb (or GST alone) immobilised on glutathione-Sepharose 4B beads, incubated with truncated Gαi1; 10 mM HEPES, 150 mM NaCl, 10 mM MgCl2, 10 uM GDP, 0.1% Tween20, pH 7.4; 1 h at 4 °C; Western blot with anti-Gαi1 monoclonal antibody
What all share (details): both partners purified

Experiment [1] concerns the target T1, human WT truncated Gαi1 protein (residues 26-354), GDP-bound form (human, UniProt P63096 26-354).
T1 construct: human Gαi1 (α-subunit of heterotrimeric Gi protein), residues 26-354; lacks the N-terminal disordered region (25 amino acids); Cloned in pET151/D-TOPO with a TEV site after the His6-tag; also called WT Gαi1; not shown: His6, N-terminal, cleaved

Experiment [2] deals with T2, human truncated Gαi1 K180L single mutant, GDP-bound form (human, UniProt P63096 26-354, K180L).
T2 construct: human Gαi1, residues 26-354, with K180L (Leu is the corresponding residue of human Gαs); site-directed mutant of the truncated Gαi1 construct; also called K180L Gαi1; not shown: His6, N-terminal, cleaved
T2 sequence (P63096 26-354 K180L): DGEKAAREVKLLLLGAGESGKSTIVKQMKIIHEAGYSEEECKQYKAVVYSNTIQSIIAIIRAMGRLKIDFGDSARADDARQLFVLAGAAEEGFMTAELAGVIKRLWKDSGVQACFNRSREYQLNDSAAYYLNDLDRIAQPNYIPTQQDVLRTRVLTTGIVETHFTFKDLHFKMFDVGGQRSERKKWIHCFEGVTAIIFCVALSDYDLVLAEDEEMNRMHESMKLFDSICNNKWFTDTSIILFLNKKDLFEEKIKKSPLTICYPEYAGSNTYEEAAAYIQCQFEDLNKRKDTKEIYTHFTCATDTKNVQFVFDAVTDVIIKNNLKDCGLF

Experiment [3] addresses T3, human truncated Gαi1 K67A single mutant, GDP-bound form (human, UniProt P63096 26-354, K67A).
T3 construct: human Gαi1, residues 26-354, with K67A; site-directed mutant of the truncated Gαi1 construct; also called K67A Gαi1; not shown: His6, N-terminal, cleaved

For experiment [4], the target named is T4, human truncated Gαi1 E238N, E239Q double mutant, GDP-bound form (human, UniProt P63096 26-354, E238N | E239Q).
T4 construct: human Gαi1, residues 26-354, with E238N and E239Q (the corresponding residues of human Gαs); site-directed mutant of the truncated Gαi1 construct; also called E238N, E239Q Gαi1 double mutant; not shown: His6, N-terminal, cleaved
T4 sequence (P63096 26-354 E238N/E239Q): as the sequence (P63096 26-354 K180L) above, with L155K, E213N, E214Q counted along it

Experiment [5] deals with T5, human truncated Gαi1 E236Q single mutant, GDP-bound form (human, UniProt P63096 26-354, E236Q).
T5 construct: human Gαi1, residues 26-354, with E236Q; site-directed mutant of the truncated Gαi1 construct; also called E236Q Gαi1; not shown: His6, N-terminal, cleaved
T5 sequence (P63096 26-354 E236Q): as the sequence (P63096 26-354 K180L) above, with L155K, E211Q counted along it

In experiment [6] the target is T6, human truncated Gαi1 R86A single mutant, GDP-bound form (human, UniProt P63096 26-354, R86A).
T6 construct: human Gαi1, residues 26-354, with R86A; site-directed mutant of the truncated Gαi1 construct; also called R86A Gαi1; not shown: His6, N-terminal, cleaved
T6 sequence (P63096 26-354 R86A): as the sequence (P63096 26-354 K180L) above, with R61A, L155K counted along it

Numbering of substitutions follows the chain as printed. In names and notes the source's numbering stands.

T1 sequence (P63096 26-354): as the sequence (P63096 26-354 K180L) above, with L155K counted along it
T3 sequence (P63096 26-354 K67A): as the sequence (P63096 26-354 K180L) above, with K42A, L155K counted along it

B1: GST-human ferric E151Q Ngb mutant (natural protein)
chain: MERPEPELIRQSWRAVSRSPLEHGTVLFARLFALEPDLLPLFQYNCRQFSSPEDCLSSPEFLDHIRKVMLVIDAAVTNVEDLSSLEEYLASLGRKHRAVGVKLSSFSTVGESLLYMLEKCLGPAFTPATRAAWSQLYGAVVQAMSRGWDGQ
notes: human neuroglobin (Ngb) with E151Q (the residue of bush baby Ngb at this position); in pGEX-4T-1; Ferric form; made by site-directed mutagenesis of GST-Ngb; also called GST-human Ngb mutant; source: E. coli BL21 (DE3), purified (glutathione-Sepharose 4B)
In the case of B1, the binding result in experiment [1] was “binds”.

B2: GST-human ferric R97C Ngb mutant (natural protein)
chain: B1 chain with R97C, Q151E
notes: human neuroglobin (Ngb) with R97C (the residue of megabat Ngb at this position); in pGEX-4T-1; Ferric form; made by site-directed mutagenesis of GST-Ngb; also called GST-human Ngb mutant; source: E. coli BL21 (DE3), purified (glutathione-Sepharose 4B)
For the molecule B2, in experiment [1], the binding result was “binds”.

B3: GST-human ferric WT Ngb (neuroglobin) (natural protein)
chain: B1 chain with Q151E
notes: human neuroglobin (Ngb); human Ngb cDNA cloned into pGEX-4T-1; also called GST-human WT Ngb; GST-human Ngb; source: E. coli BL21 (DE3), purified (glutathione-Sepharose 4B)
Regarding B3, the binding result in experiment [2], in experiment [3], in experiment [4], in experiment [5], in experiment [6] and in experiment [1] was “binds” each time.

Source of the values: publication PMC4842972, “Identification of residues crucial for the interaction between human neuroglobin and the α-subunit of heterotrimeric Gi protein” (Scientific Reports, 2016).
